Measured values: US20110263014A1, “Cleavage of Nanog by Caspases Mediates the Differentiation of Embryonic Stem Cells” (BAYLOR COLLEGE OF MEDICINE, priority 2008, published 2011)
“Also recorded” adds a separate entry of the source.

How the values were obtained:
R1 ES cells = assay: Apoptosis rate (counting apoptotic bodies); type: cell-based, mouse; conditions: over 72 hours post-stimulation with RA
Protocol: R1 ES cells (1×10^5) were plated into 6-cm dishes on irradiated MEFs and stimulated with RA differentiation medium for up to 72 hours. Cells were fixed with 4% paraformaldehyde (EMS, cat. no. 15710), stained with DAPI and mounted with Vectashield (Vector Lab, cat. no. H1200). The number of apoptotic figures was determined in triplicate per 100 cells. As a positive control, ES cells were incubated with staurosporine (Sigma, cat. no. 55921, 1 μM) for 4 hours.

caspase-3 = molecular target: T1, caspase-3 (Homo sapiens, UniProt P42574); assay: caspase-3 activity assay (CaspGlo) with Nanog cleavage site peptides; type: biochemical; conditions: FIG. 10B
T1 construct: purchased BD Bioscience 556471
T1 sequence (P42574 29-175 limits assumed): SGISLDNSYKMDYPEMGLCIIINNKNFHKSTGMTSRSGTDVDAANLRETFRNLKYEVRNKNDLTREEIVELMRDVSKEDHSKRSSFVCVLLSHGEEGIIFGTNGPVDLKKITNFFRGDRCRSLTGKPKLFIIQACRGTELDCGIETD
T1 sequence (P42574 176-277 limits assumed): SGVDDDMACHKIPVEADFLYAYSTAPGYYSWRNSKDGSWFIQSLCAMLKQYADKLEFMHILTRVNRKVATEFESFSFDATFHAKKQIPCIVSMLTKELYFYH
Protocol: Trypsinized ES cells (R1; 200,000; D3 250,000) were plated into 6 wells containing normal ES cell medium, and on the next day the medium was changed to 1 μM RA differentiation medium. Cells were harvested with trypsin-EDTA (Invitrogen, cat. no. 25300-054), and protein extracts were made in 0.1% CHAPS buffer, pH 7.2 (50 mM Hepes; 150 mM KCl; 1× protease inhibitors (Roche, cat. no. 1697498001); 2 mM Na fluoride and orthovanadate, respectively, at specified time points. The CaspGlo (Promega, cat. no. G8091) kit was used to directly measure caspase activity. Before determining caspase activity, we tested the system for variability within the dynamic range, using recombinant caspase-3 (BD Bioscience, cat. no. 556471). The signal was measured with the Wallac 1429 Victorll instrument (Perkin-Elmer, Wellesley, Mass.).

Row | Compound | percentage of cells undergoing apoptosis (R1 ES cells) | inhibition / targeting of caspase-3 by cleavage site peptide (caspase-3)
1 | CC1=C(/C=C/C(C)=C/C=C/C(C)=C/C(=O)O)C(C)(C)CCC1 [RA, retinoic acid] | essentially no increases | –
2 | DSPD: hNanog caspase cleavage site peptide | – | effectively inhibit caspase-3
3 | GSPD: mNanog caspase cleavage site peptide | – | effectively inhibit caspase-3; also recorded: still targeted by caspase-3
